# T1: PEM peptide (human)
# T1 peptide: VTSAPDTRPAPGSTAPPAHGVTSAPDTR
# Biological target: T1, PEM peptide
# Assay: phage ELISA on PEM
# Conditions: not given
row,Molecule,binding result
1,GAPLWCEKLSGTGSGGFKWPGCGSGPTYNTFTPARVGSDNKWP [E7],binds
2,GSPVWSGDNRWRGSSPLKRPGCGNGAKCNTLKDNRKDSRKTKH [E33],binds
3,VSTGWSGTPRWCAPGGKQGSGCGNGPRWTTLTPDLGGTRKYGP [E4],binds
4,GPRSWMGQPRGSDAGSCKWAGCGDAPMWRASTPGHGGPPNRGS [E85],binds
5,EALVCRGKPPWSGPAGLLWQGCGTGPVSRTFTSAQGRSRNKTS [E88],binds
6,GSALLTSKGCVRGPGGLMRPGCGNDRLGKSSTYAHGGWIKTGP [E21],binds
7,GPPVWSAKSRWTGTGVLNWPGCGKVPSCSTYTPSRDRSRKSDP [E16],binds
8,GAPVWRGNRWCSDNGELERPGCGYGPRFNILPPGRGNSRKPSP [E73],binds
9,GSPVWMGSTRWTGHGWFRSQGCGNVPRTNSCAPAGKDSQNKGP [E65],binds
10,GSSGWKVKHRCGGPGTLQRPGCGNLPLGHTFPPTRGGSHMEGA [E84],binds

# Biological target: T2, PEM (Homo sapiens, UniProt P15941)
# T2 construct: made in house; host or cells: chemical peptide synthesis
# Assay: ELISA of phage from the MP-1 saturation mutagenesis library for binding to PEM
# Conditions: phage-displayed abtide from MP-1 saturation mutagenesis library
# Protocol: A saturation mutagenesis library based on one of the PEM abtides, MP-1, was constructed. Nucleotide sequences encoding the MP-1 abtide were synthesized using a doping scheme similar to that described in Section 5.3 whereby each nucleotide was contaminated with 9% of each of the other 3 nucleotides (e.g. G=73% G, 9% A, 9% T, 9° C.). The resulting mutagenic oligonucleotides were used to construct a library by TSAR library methods described above (see FIG. 13).
# The resulting library was screened to identify phage expressing abtides capable of binding to PEM. The binding of isolated phage to PEM was confirmed by an ELISA assay.
row,Molecule,binding of isolated phage to PEM (ELISA)
1,GSPVWMGSTRWTGHGWFRSQGCGNVPRTNSCAPAGKDSQNKGP [E65],Positive Binding Sequences
2,AGRELRQDEGEGGAGADVARLREGPICSTFTPARGGSCPSGL (phage displayed) [E43],Negative Binding Sequences
3,GSALLTSKGCVRGPGGLMRPGCGNDRLGKSSTYAHGGWIKTGP (phage displayed) [E21],Positive Binding Sequences
4,GAPVSRCKPACGGFWGVNWPGCGNASMCKTFTNGHGVSSDNGH (phage displayed) [E22],Positive Binding Sequences
5,REPVVGGKPWCRGPGGLRWRGCGKSQFDKIITLSRDNRRDKRP [E83],Negative Binding Sequences
6,GLSLVRGDSWGSGAGGWKRHGCGHGPMYNPQTPARGGSCTRNT [E66],Positive Binding Sequences
7,ADPVCSRKPDGGGLRGLRWPGCGKGPILYNVTAARGGSRNNGP [E70],Positive Binding Sequences
8,G PQGSEHQCCSGHWGLKFPGCGNGPICNNFTALRGASRKNGP (GPQGSEHQCCSGHWGLKFPGCGNGPICNNFTALRGASRKNGP) [E62],Positive Binding Sequences
9,RSAVSEGKPREIVPGGCMWPGCGNGRKSNTLTHGPEQFQEIEP (phage displayed) [E15],Negative Binding Sequences
10,GAPLWCEKLSGTGSGGFKWPGCGSGPTYNTFTPARVGSDNKWP [E7],Positive Binding Sequences
11,GPPVWSAKSRWTGTGVLNWPGCGKVPSCSTYTPSRDRSRKSDP (phage displayed) [E16],Positive Binding Sequences
12,QARVSMAISCRSGPSDLMHQGCGYGPRCNPDTTDSGGSHTNTP (phage displayed) [E49],Negative Binding Sequences
13,GEPVWCRHSGGRVQGGLDWLGCGDGPLRYTVTPARGGPSKHGP [E64],Positive Binding Sequences
14,STPGCSGYSGSGDPRCLTCTACGNGHTRKTLTPAHGRSTHKEP [E72],Negative Binding Sequences
15,GTRVPPGFALRGGRDGLSWAGCGKAPISKTYTSARGRSRKKGS (phage displayed) [E3],Negative Binding Sequences
16,EALVCRGKPPWSGPAGLLWQGCGTGPVSRTFTSAQGRSRNKTS [E88],Positive Binding Sequences

row,Molecule,binding of isolated phage to PEM (ELISA)
1,GPRSWMGQPRGSDAGSCKWAGCGDAPMWRASTPGHGGPPNRGS [E85],Positive Binding Sequences
2,GSSGWKVKHRCGGPGTLQRPGCGNLPLGHTFPPTRGGSHMEGA [E84],Positive Binding Sequences
3,CAPMWSGKPPWCVGGGVKFRGCGNRPDCNIITPRLVESRDKAL [E68],Positive Binding Sequences
4,G PLLPGEAAVHGARGLMRSGCGNGPTWNRLTAACRDSRNKGP (GPLLPGEAAVHGARGLMRSGCGNGPTWNRLTAACRDSRNKGP; phage displayed; extra N-terminal G) [E44],Positive Binding Sequences
5,GSSVCGGQPSGRGFGGLPGPGCGNGPTSNTLTSARGGFPNKGL (phage displayed) [E27],Negative Binding Sequences
6,VSRAWSGKPRLMGSHGLNCPGCGKGHSGIMFIPDPAGSANTPP [E67],Positive Binding Sequences
7,VSTGWSGTPRWCAPGGKQGSGCGNGPRWTTLTPDLGGTRKYGP (phage displayed) [E4],Positive Binding Sequences
8,GSPVWSGDNRWRGSSPLKRPGCGNGAKCNTLKDNRKDSRKTKH (phage displayed) [E33],Positive Binding Sequences
9,SSGVGNGKPRSWAPDALNGGCGNIQFANTITPDRGGSCNQTL (phage displayed) [E24],Negative Binding Sequences
10,GDPECRGKPRGRWTGSLACTGCGNGPNSKICTRARGVSRNKGP [E60],Negative Binding Sequences
11,GAPLWQGDPADEVLGGSMIPGCGIGALSQTFTPTPGGSRKNVT (phage displayed) [E37],Negative Binding Sequences
12,GAHGYKNGSTCTGLGGWRCRGCGKGAMCNNPSPAGGAYHNQGP (phage displayed) [E29],Positive Binding Sequences
13,GQPECRITSGCCGTDGNKWLGCGKVDMCNTLNPAVGCHGTNGS (phage displayed) [E34],Negative Binding Sequences
14,GAPVVGDILWCSGARGAKWPGCGKGPTNKTFSHSRGGTQKSGL [E90],Positive Binding Sequences
15,GAPVWRGNPRWRGPGGFKWPGCGNGPMCNTFTPARGGSRNNGP [MP-1],Positive Binding Sequences
16,GAPVWRGNRWCSDNGELERPGCGYGPRFNILPPGRGNSRKPSP [E73],Positive Binding Sequences

# — patent US20040229289A1, “Antigen binding peptides (abtides) from peptide libraries” (Cytogen Corporation, priority 1994, published 2004)
